# Laboratory results: IntAct's records for PubMed 23104059
# B1: Vesicle-associated membrane protein 7 (Mus musculus), P70280 (parent)
# chain: MAILFAVVARGTTILAKHAWCGGNFLEVTEQILAKIPSENNKLTYSHGNYLFHYICQDRIVYLCITDDDFERSRAFSFLNEVKKRFQTTYGSRAQTALPYAMNSEFSSVLAAQLKHHSENKSLDKVMETQAQVDELKGIMVRNIDLVAQRGERLELLIDKTENLVDSSVTFKTTSRNLARAMCMKNIKLTIIIIIVSIVFIYIIVSLLCGGFTWPNCVKK
# Variants of: B1
# Settings: with anr27_human ANKRD27, Q96NW4
# anr27_human ANKRD27, Q96NW4, sequence (Q96NW4 whole entry): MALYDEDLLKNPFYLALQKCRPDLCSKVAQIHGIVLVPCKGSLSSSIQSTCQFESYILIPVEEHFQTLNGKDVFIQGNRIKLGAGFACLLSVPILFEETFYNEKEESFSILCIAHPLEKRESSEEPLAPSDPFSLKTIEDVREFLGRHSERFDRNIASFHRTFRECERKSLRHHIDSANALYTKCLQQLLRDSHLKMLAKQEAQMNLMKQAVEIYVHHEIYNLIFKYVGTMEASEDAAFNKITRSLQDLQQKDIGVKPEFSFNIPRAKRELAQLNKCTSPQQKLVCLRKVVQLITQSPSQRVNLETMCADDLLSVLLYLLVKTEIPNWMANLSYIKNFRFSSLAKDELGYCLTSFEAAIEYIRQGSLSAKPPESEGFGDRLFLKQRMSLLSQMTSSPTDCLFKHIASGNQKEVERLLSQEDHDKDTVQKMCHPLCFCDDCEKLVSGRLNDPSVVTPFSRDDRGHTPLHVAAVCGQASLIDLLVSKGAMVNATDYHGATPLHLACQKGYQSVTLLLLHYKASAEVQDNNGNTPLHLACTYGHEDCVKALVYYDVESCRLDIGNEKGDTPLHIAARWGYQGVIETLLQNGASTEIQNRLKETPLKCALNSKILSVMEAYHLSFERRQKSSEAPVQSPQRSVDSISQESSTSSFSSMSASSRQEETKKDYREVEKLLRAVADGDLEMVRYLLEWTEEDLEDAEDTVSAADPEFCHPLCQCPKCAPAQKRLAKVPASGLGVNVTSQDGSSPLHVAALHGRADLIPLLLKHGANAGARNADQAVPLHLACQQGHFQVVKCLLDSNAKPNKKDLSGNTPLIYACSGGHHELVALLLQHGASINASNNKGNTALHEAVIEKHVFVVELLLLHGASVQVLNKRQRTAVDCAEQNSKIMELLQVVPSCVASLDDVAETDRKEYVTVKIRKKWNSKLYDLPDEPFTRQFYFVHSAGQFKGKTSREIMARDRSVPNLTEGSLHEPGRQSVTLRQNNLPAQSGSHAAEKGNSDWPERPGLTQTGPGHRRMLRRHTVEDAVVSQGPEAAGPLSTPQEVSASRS
row,Variant,effect of a mutation on the interaction
1,MAILFAVVARGTTILAKHAWCGGNFLEVTEQILAKIPSENNKLTYSHGNYLFHYICQDRIVYLCITDDAFFRDRAFSFLNEVKKRFQTTYGSRAQTALPYAMNSEFSSVLAAQLKHHSENKSLDKVMETQAQVDELKGIMVRNIDLVAQRGERLELLIDKTENLVDSSVTFKTTSRNLARAMCMKNIKLTIIIIIVSIVFIYIIVSLLCGGFTWPNCVKK [D69A;E71F;S73D],disrupting interaction strength
2,MAILFAVVARGTTILAKHAWCGGNFLEVTEQILAKIPSENNKLTYSHGNYLFHYICQDRIVYLCITDDDFEASRAFSFLNEVKKRFQTTYGSRAQTALPYAMNSEFSSVLAAQLKHHSENKSLDKVMETQAQVDELKGIMVRNIDLVAQRGERLELLIDKTENLVDSSVTFKTTSRNLARAMCMKNIKLTIIIIIVSIVFIYIIVSLLCGGFTWPNCVKK [R72A],disrupting interaction strength
